In paper PMC4776207:

Target: ISAV s8ORF2 protein (protein encoded by the largest open reading frame of gene segment 8) (infectious salmon anaemia virus (ISAV), strain Glesvaer/2/90)
Test: non-reducing SDS-PAGE with western blot

## ISAV s8ORF2 protein (protein encoded by the largest open reading frame of gene segment 8) (natural protein)
  stoichiometry N: 2
